According to patent publication US20230263916A1 (NANOMAB TECHNOLOGY, published 2023):

Tests used:
[1] = molecular target: T1, human Her2 (ECD)-Fc protein (human, UniProt P04626 23-652); experiment: PE-ELISA, A405 of antigen well over control well
T1 construct: extracellular domain; Made in HEK293F cells; also called hHer2 (ECD)-Fc antigen; Her2 (ECD)-Fc antigen; not shown: TEV restriction site at the C-terminal of hHer2 (ECD); IgG1 Fc of the pFUSE-IgG1 vector
Description: (§1) (1) 10 μg Her2 (ECD)-Fc antigen (10 μg Fc in NaHCO₃ as control) dissolved in 100 mM NaHCO₃ (pH 8.2) was coupled to a NUNC plate then incubated at 4° C. overnight.
(§2) (5) The unbound antibody was washed off with PBST.
(§3) (6) When the OD value of the sample was over 3 times of the OD value of the control sample (Ratio+/−>3), the tested sample was determined to be a positive clone. […] Then all the positive clones were transferred to LA medium for plasmid extraction and sequencing.

[2] = molecular target: T1, human Her2 (ECD)-Fc protein; experiment: PE-ELISA, crude extract on antigen-coated plate
Description: as §1, §2, §3

Binder | Ratio(+/-) [1] | A405+ [2] [A405]
Nanobody No. 33 (VHH, also called 33; not shown: tags (HA, His) implied by anti-HA detection and nickel column) VHH: QVQLQESGGGSVQAGGSLRLSCTASGFTFDDVDMGWYRQAPGNECELVSTISSDGSTYYADSVKGRFTISQDNAKNTVYLQMNSLKPEDTAMYYCAAARYSDYEGMCGYWSQGTQVTVSS | 21.3 | 2.05
Nanobody No. 36 (VHH, also called 36; not shown: tags (HA, His) implied by anti-HA detection and nickel column) VHH: QVQLQESGGGSVQAGESLRLSCRTSGFSFDDVDMGWYRQAPGNECELVSTISSDGSTYYADSVKGRFTISQDNAKNTVYLQMNSLKPEDTAMYYCAAARYSDYEGMCGYWSQGTQVTVSS | 21.6 | 2.22
Nanobody No. 35 (VHH, also called 35; not shown: tags (HA, His) implied by anti-HA detection and nickel column) VHH: QVQLQESGGGLVQPGGSLRLSCAASGFTFDDVDMGWYRQAPGNECELVSTISSDGSTYYADSVKGRFTISQDNAKNTVYLQMNSLKPEDTAMYYCAAARYSDYEGMCGYWSQGTQVTVSS | 21 | 1.99
Nanobody No. 37 (VHH, also called 37; not shown: tags (HA, His) implied by anti-HA detection and nickel column) VHH: QVQLQESGGGSVQAGETLRLSCTVSGFTFDDADMGWYRQAPGNQCELVSTISSDGITYYADSVKGRFTVSQDNAKNTVYLQMNSLKPEDTAMYYCAAARYSDYEGMCGYWSQGTQVTVSS | 19.6 | 2.1
Nanobody No. 32 (VHH, also called 32; not shown: tags (HA, His) implied by anti-HA detection and nickel column) VHH: QVQLQESGGGSVQAGGSLRLSCTASGFTFDDVDMGWYRQASGNECELVSTISSDGSTYYADSVKGRFTISQDNAKNTVYLQMNSLKPEDTAMYYCAAARYSDYEGMCGYWSQGTQVTVSS | 25.3 | 2.36
Nanobody No. 34 (VHH, also called 34; not shown: tags (HA, His) implied by anti-HA detection and nickel column) VHH: QVQLQESGGGSVQAGGSLRLSCTVSGFTFDDVDMGWYRQAPGNECELVSTISSDGSTYYADSVKGRFTISQDNAKNTVYLQMNSLKPEDTAMYYCAAARYSDYEGMCGYWSQGTQVTVSS | 20 | 2.26
Nanobody No. 39 (VHH, also called 39; not shown: tags (HA, His) implied by anti-HA detection and nickel column) VHH: QVQLQESGGGSVQAGGSLRLSCAASGYTYTGYCMGWFRQAPGKEREGVATIDSDGDTSYADSVKGRFTISKDNAKNTLYLQMNSLKPEDTAMYYCAADFRRWHLCSSSFREDGMDYWGKGTQVTVSS | 17.8 | 1.86
Nanobody No. 40 (VHH, also called 40; not shown: tags (HA, His) implied by anti-HA detection and nickel column) VHH: QVQLQESGGGSVQAGETLRLSCAASGYTYTGYCMGWFRQATGKEREGVATIDSDGDTTYADSVKGRFTISKDNGKNTLYLQMNSLKPEDTAMYYCAADFRRWHLCSSSFQEYDMDYWGKGTQVTVSS | 19.1 | 1.57
Nanobody No. 38 (VHH, also called 38; not shown: tags (HA, His) implied by anti-HA detection and nickel column) VHH: QVQLQESGGGSVQAGGSLRLSCAASGFTYTGYCMGWFRQAPGKEREGVATVDSDGDTSYADSVKGRFTISKDNAKNTLYLQMNSLKPEDTAMYYCAADFSRWHLCSTSLATLGYWGQGTQVTVSS | 21.8 | 2.14
Nanobody No. 31 (VHH, also called 31; not shown: tags (HA, His) implied by anti-HA detection and nickel column) VHH: QVQLQESGGGSVQAGETLRLSCTASGFTFNDSNMGWYRQAPGHECELVSTISSDGSTYYADSVKGRFTISQNNARNTVYLQMNSLKPEDTAVYYCAGDWGYELGICTSLDYWGQGTQVTVSS | 21.4 | 1.65
Nanobody No. 29 (VHH, also called 29; not shown: tags (HA, His) implied by anti-HA detection and nickel column) VHH: QVQLQESGGGSVQAGGSLRLSCTASGFTFDDLDMRWYRQAPGNECELVSIINSDGRTYYADSVKGRFAISQNNAKNTVYLQMNSLKPEDTAVYYCAADQHRYGLGTCEALDYWGRGTQVTVSS | 18.8 | 1.48
